Test results: US20240252613A1 (ACHELOIS BIOPHARMA, published 2024)

Key:
[1] = target: T1, human TIM-3 on transfected S293 cells (human, UniProt Q8TDQ0 22-301); experiment: FACS, dye-labeled MVP on transfected S293 cells
T1 construct: also called HAVCR2
T1 sequence: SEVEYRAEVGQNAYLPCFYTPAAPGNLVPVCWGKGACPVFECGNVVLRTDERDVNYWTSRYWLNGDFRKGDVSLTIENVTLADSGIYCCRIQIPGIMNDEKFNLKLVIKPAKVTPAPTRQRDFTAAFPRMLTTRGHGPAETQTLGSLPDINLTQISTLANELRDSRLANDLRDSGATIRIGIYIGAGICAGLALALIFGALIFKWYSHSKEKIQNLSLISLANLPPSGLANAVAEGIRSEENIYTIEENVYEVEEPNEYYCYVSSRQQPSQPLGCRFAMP

[2] = target: T1, human TIM-3 on transfected S293 cells; experiment: FACS, unlabeled MVP on transfected cells, detected with antibody
[3] = target: T2, ICOS ligand on transfected S293 cells (Mus musculus (Mouse), UniProt Q9JHJ8 47-322); experiment: FACS, dye-labeled MVP on transfected S293 cells
T2 sequence: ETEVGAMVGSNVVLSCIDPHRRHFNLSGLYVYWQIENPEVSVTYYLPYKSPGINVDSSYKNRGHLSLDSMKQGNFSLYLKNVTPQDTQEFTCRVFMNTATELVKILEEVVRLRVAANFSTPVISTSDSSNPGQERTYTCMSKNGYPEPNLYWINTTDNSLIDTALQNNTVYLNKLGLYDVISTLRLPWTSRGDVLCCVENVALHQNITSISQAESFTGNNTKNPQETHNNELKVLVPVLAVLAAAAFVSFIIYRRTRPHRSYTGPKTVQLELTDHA

[4] = target: T3, GITR Ligand on transfected S293 cells (Mus musculus (Mouse), UniProt Q7TS55 1-173); experiment: FACS, dye-labeled MVP on transfected S293 cells
T3 sequence: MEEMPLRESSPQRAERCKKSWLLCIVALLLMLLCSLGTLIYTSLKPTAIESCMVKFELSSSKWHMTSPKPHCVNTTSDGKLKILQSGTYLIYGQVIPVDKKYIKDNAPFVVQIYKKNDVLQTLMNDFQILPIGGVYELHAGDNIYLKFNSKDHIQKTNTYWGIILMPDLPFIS

[5] = target: T3, GITR Ligand on transfected S293 cells; experiment: FACS, unlabeled MVP on transfected cells, detected with antibody
[6] = target: T4, CD2 on transfected S293 cells (Mus musculus (Mouse), UniProt P08920 23-344); experiment: as above
T4 sequence: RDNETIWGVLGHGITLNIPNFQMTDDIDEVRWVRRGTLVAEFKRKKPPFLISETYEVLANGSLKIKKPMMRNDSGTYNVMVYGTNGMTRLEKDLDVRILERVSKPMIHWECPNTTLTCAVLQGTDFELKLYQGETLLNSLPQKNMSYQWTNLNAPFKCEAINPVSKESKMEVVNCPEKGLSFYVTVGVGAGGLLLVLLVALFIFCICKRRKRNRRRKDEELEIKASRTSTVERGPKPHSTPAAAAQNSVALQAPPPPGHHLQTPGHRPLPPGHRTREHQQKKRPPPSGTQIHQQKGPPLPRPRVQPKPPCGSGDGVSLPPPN

[7] = target: T5, OX40L on transfected S293 cells (Mus musculus (Mouse), UniProt P43488 1-198); experiment: FACS, dye-labeled MVP on transfected S293 cells
T5 construct: also called OX40 ligand
T5 sequence: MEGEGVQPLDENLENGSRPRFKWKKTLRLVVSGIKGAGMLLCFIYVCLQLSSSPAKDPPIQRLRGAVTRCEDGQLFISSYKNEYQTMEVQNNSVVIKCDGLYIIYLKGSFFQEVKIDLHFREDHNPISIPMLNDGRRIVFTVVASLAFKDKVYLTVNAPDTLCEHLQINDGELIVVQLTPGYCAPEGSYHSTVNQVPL

[8] = target: T5, OX40L on transfected S293 cells; experiment: FACS, unlabeled MVP on transfected cells, detected with antibody
[9] = target: T6, 4-1BBL on transfected S293 cells (Mus musculus (Mouse), UniProt P41274 1-309); experiment: FACS, dye-labeled MVP on transfected S293 cells
T6 construct: also called 4-1BB ligand
T6 sequence: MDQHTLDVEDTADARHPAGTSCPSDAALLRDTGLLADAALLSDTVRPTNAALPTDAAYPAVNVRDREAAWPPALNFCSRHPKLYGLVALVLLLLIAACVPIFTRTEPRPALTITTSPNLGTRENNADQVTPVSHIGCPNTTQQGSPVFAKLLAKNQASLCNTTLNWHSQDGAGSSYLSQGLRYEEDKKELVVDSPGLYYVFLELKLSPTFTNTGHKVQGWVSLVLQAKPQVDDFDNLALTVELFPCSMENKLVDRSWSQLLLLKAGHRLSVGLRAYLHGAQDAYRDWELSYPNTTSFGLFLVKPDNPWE

B1: human Ceacam1-MVP (other)
chain: QLTTESMPFNVAEGKEVLLLVHNLPQQLFGYSWYKGERVDGNRQIVGYAIGTQQATPGPANSGRETIYPNASLLIQNVTQNDTGFYTLQVIKSDLVNEEATGQFHVYPELPKPSISSNNSNPVEDKDAVAFTCEPETQDTTYLWWINNQSLPVSPRLQLSNGNRTLTLLSVTRNDTGPYECEIQNPVSANRSDPVTLNVTYGPDTPTISPSDTYYRPGANLSLSCYAASNPPAQYSWLINGTFQQSTQELFIPNITVNNSGSYTCHANNSVTGCNRTTVKTIIVTELSPVVAKPQIKASKTTVTGDKDSVNLTCSTNDTGISIRWFFKNQSLPSSERMKLSQGNTTLSINPVKREDAGTYWCEVFNPISKNQSDPIMLNVNYNALPQENGLSPGIIQADGWMCHASKWVTTCDFRWYGPKYITHSIRSFTPSVEQCKESIEQTKQGTWLNPGFPPQSCGYATVTDAEAVIVQVTPHHVLVDEYTGEWVDSQFINGKCSNYICPTVHNSTTWHSDYKVKGLCDSNLGMLDSDLHLSSKAQVFEHPHIQDAASQLPDDESLFFGDTGLSKNPIELVEGWFSSWKSSIASFFFIIGLIIGLFLVLRVGIHLCIKLKHTKKRQIYTDIEMNRLGK
notes: also called Ceacam1-MVPs
- fluorescence shift relative to control MVPs [1]: ~2 fold
- staining shift of target+ over target- cells [2]: ~2 fold

B2: ICOS-MVP (other)
chain: EINGSADHRMFSFHNGGVQISCKYPETVQQLKMRLFREREVLCELTKTKGSGNAVSIKNPMLCLYHLSNNSVSFFLNNPDSSQGSYYFCSLSIFDPPPFQERNLSGGYLHIYESQLCCQLKLDIIQADGWMCHASKWVTTCDFRWYGPKYITHSIRSFTPSVEQCKESIEQTKQGTWLNPGFPPQSCGYATVTDAEAVIVQVTPHHVLVDEYTGEWVDSQFINGKCSNYICPTVHNSTTWHSDYKVKGLCDSNLGMLDSDLHLSSKAQVFEHPHIQDAASQLPDDESLFFGDTGLSKNPIELVEGWFSSWKSSIASFFFIIGLIIGLFLVLRVGIHLCIKLKHTKKRQIYTDIEMNRLGK
notes: also called ICOS-MVPs; Murine ICOS-MVP
- fluorescence shift relative to control MVPs [3]: ~2 fold

B3: GITR-MVP (other)
chain: QPSVVEEPGCGPGKVQNGSGNNTRCCSLYAPGKEDCPKERCICVTPEYHCGDPQCKICKHYPCQPGQRVESQGDIVFGFRCVACAMGTFSAGRDGHCRLWTNCSQFGFLTMFPGNKTHNAVCIPEPLPTEQYGHIIQADGWMCHASKWVTTCDFRWYGPKYITHSIRSFTPSVEQCKESIEQTKQGTWLNPGFPPQSCGYATVTDAEAVIVQVTPHHVLVDEYTGEWVDSQFINGKCSNYICPTVHNSTTWHSDYKVKGLCDSNLGMLDSDLHLSSKAQVFEHPHIQDAASQLPDDESLFFGDTGLSKNPIELVEGWFSSWKSSIASFFFIIGLIIGLFLVLRVGIHLCIKLKHTKKRQIYTDIEMNRLGK
notes: also called GITR-MVPs; Murine GITR-MVP
- fluorescence shift relative to control MVPs [4]: ≥ 2 log
- staining shift of target+ over target- cells [5]: 1 log

B4: CD48-MVP (other)
chain: FQGHSIPDINATTGSNVTLKIHKDPLGPYKRITWLHTKNQKILEYNYNSTKTIFESEFKGRVYLEENNGALHISNVRKEDKGTYYMRVLRETENELKITLEVFDPVPKPSIEINKTEASTDSCHLRLSCEVKDQHVDYTWYESSGPFPKKSPGYVLDLIVTPQNKSTFYTCQVSNPVSSKNDTVYFTLPCDLARSSGVCWTATWLVVTTLIIHRILLTIIQADGWMCHASKWVTTCDFRWYGPKYITHSIRSFTPSVEQCKESIEQTKQGTWLNPGFPPQSCGYATVTDAEAVIVQVTPHHVLVDEYTGEWVDSQFINGKCSNYICPTVHNSTTWHSDYKVKGLCDSNLGMLDSDLHLSSKAQVFEHPHIQDAASQLPDDESLFFGDTGLSKNPIELVEGWFSSWKSSIASFFFIIGLIIGLFLVLRVGIHLCIKLKHTKKRQIYTDIEMNRLGK
notes: also called CD48-MVPs; Murine CD48-MVP
- staining shift of target+ over target- cells [6]: > 1 log

B5: OX40-MVP (other)
chain: VTARRLNCVKHTYPSGHKCCRECQPGHGMVSRCDHTRDTLCHPCETGFYNEAVNYDTCKQCTQCNHRSGSELKQNCTPTQDTVCRCRPGTQPRQDSGYKLGVDCVPCPPGHFSPGNNQACKPWTNCTLSGKQTRHPASDSLDAVCEDRSLLATLLWETQRPTFRPTTVQSTTVWPRTSELPSPPTLVTPEGPADIIQADGWMCHASKWVTTCDFRWYGPKYITHSIRSFTPSVEQCKESIEQTKQGTWLNPGFPPQSCGYATVTDAEAVIVQVTPHHVLVDEYTGEWVDSQFINGKCSNYICPTVHNSTTWHSDYKVKGLCDSNLGMLDSDLHLSSKAQVFEHPHIQDAASQLPDDESLFFGDTGLSKNPIELVEGWFSSWKSSIASFFFIIGLIIGLFLVLRVGIHLCIKLKHTKKRQIYTDIEMNRLGK
notes: also called OX40-MVPs; Murine OX40-MVP
- fluorescence shift relative to control MVPs [7]: ≥ 2 fold
- staining shift of target+ over target- cells [8]: 1 log

B6: 4-1BB-MVP (other)
chain: VQNSCDNCQPGTFCRKYNPVCKSCPPSTFSSIGGQPNCNICRVCAGYFRFKKFCSSTHNAECECIEGFHCLGPQCTRCEKDCRPGQELTKQGCKTCSLGTFNDQNGTGVCRPWTNCSLDGRSVLKTGTTEKDVVCGPPVVSFSPSTTISVTPEGGPGGHSLQVLTDIIQADGWMCHASKWVTTCDFRWYGPKYITHSIRSFTPSVEQCKESIEQTKQGTWLNPGFPPQSCGYATVTDAEAVIVQVTPHHVLVDEYTGEWVDSQFINGKCSNYICPTVHNSTTWHSDYKVKGLCDSNLGMLDSDLHLSSKAQVFEHPHIQDAASQLPDDESLFFGDTGLSKNPIELVEGWFSSWKSSIASFFFIIGLIIGLFLVLRVGIHLCIKLKHTKKRQIYTDIEMNRLGK
notes: also called 4-1BB-MVPs; Murine 4-1BB-MVP
- fluorescence shift relative to control MVPs [9]: ≥ 2 fold
